According to US20210179724A1 (TWIST BIOSCIENCE, published 2021):
Changes are numbered by the printed parent chain. Names may count otherwise. One block for each binder: values may come before it.

Key:
adenosine A2A receptor [1] = target: T1, adenosine A2A receptor (Homo sapiens (Human), UniProt P29274 1-412); test: flow cytometry titration 0.05-100 nM IgG; grey series read as HEK293-A2a cells
T1 construct: also called ADORA2; HEK293-A2a cells
Experimental: Flow cytometry data showing binding to HEK293-A2a cells using immunoglobulins from variant libraries were generated using 100 nM IgG and compared to detected binding in parent cells. […] Selected variants were assessed for binding at concentrations titrated from 100 nM. […] Binding curves are plotted with IgG concentration vs. MFI (mean fluorescence intensity). […] Selected variants were assessed for binding at concentrations titrated from 100 nM. […] Binding curves are plotted with IgG concentration vs. MFI (mean fluorescence intensity).

adenosine A2A receptor [2] = target: T1, adenosine A2A receptor; test: flow cytometry cell-binding titration 0.05-100 nM IgG; panel title 'Synthetic Library to A2a protein' (panning group)
adenosine A2A receptor [3] = target: T1, adenosine A2A receptor; test: flow cytometry cell-binding titration 0.05-100 nM IgG
adenosine A2A receptor [4] = target: T1, adenosine A2A receptor; test: flow cytometry cell-binding titration 0.05-100 nM IgG; panel title 'Immune Library to A2a protein + ZM241385' (panning group)
adenosine A2A receptor [5] = target: T1, adenosine A2A receptor; test: cell-based or functional assay

T1 sequence (P29274 whole entry): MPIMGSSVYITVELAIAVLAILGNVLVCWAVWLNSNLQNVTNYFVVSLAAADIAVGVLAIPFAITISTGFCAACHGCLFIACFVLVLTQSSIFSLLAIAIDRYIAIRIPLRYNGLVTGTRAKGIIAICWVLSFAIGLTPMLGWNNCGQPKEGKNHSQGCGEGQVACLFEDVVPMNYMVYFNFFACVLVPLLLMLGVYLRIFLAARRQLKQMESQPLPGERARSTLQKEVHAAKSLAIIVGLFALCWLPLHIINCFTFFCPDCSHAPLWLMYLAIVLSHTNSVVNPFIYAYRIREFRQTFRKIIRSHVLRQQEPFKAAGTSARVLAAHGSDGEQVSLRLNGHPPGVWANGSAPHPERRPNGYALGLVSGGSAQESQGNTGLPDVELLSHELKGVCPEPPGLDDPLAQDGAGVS

B3: A2A - 77 (antibody, V domains shown)
VH: QVQLQESGPGLVKPSGTLSLTCAVSGGSISSSNWWSWVRQPPGKGLEWIGEIYHSGNTNYNPSLKSRVTMSVDKSKNQFSLNLHSVTAADTAVYYCAREVVSGMIGTIFDYWGQGTLVTVSS
VL: ELVMTQSPSSLSASVGDRVTITCRASQRISSYLNWYQQKPGKAPKLLIYAASSLQSRVPSRFSGSGSGTDFTLTISSLQPEDFATYYCQQSYSTPLTFGGGTKLETK
notes: tested as IgG
EC50 (read off the curve) (adenosine A2A receptor [3]): ~6 nM

B4: A2A - 81 (antibody, V domains shown)
VH: B3 VH with N57S, M70I, N82K, H84G, M104L, I105Y
VL: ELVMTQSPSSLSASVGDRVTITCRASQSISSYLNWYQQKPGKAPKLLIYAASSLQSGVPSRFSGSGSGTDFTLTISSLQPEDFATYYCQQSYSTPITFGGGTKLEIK
notes: tested as IgG
binding result (adenosine A2A receptor [4]): binds

B5: A2A - 53 (antibody, V domains shown)
VH: EVQLVESGGGLVKPGGSLRLSCAASGFNIIDDYMHWVRQAPGKGLEWVGMITDTGEPTDADSVKGRFTISRDNSKNTLYLQMNSLRAEDTAVYYCVYDYIYAMDYWGQGTLVTVSS
VL: DIQMTQSPSSLSASVGDRVTITCKASQNMGSNVAWYQQKPGKAPKLLIYSASHRSSGVPSRFSGSGSGTDFTLTISSLQPEDFATYYCQQWNYPRITFGQGTKLEIK
IC50 (read off the curve), A2A antagonistic cAMP assay, RFU ratio 665/615 nm, 0.5 uM NECA (adenosine A2A receptor [5]): ~3 nM

Second part, the binder after the results:

EC50 (read off the curve) (adenosine A2A receptor [1]): ~4 nM
B1: A2A-9 (antibody, V domains shown)
VH: EVQLQQSGPGLVKPSQSLSLTCSVTGYSITSGYYWNWIRQFPGKKLEWMGYIRYDGSNNYNPSLKNRISITRDTSKNQFFLKLNSVTTDDTATYYCARVHHYYGSSYFDYWGQGTTLTVSS
VL: DIVMTQSQKFMSTSVGDRVSATCKASQNVGSSVAWFQQKPGQSPKALIYSTSYRYSGVPDRFTGSGSGTDFTLTISNVQSEDLAEYFCQQYNSYPLTFGAGTKLEIK
notes: Tested as IgG; also called A2AR variant A2A-9

binding result (adenosine A2A receptor [2]): binds
B2: A2A-18 (antibody, V domains shown)
VH: EVQLVESGGGLVKPGGSLRLSCAASGFSFSGYAMSWVRQAPGKGLEWVSVISGSGGSTNYADSVKGRFTISRDNSKNTLYLQMNSLRAEDTAVYYCAAARGYPRWRLGRRYDYWGQGTLVTVSS
VL: DIQMTQSPSSLSASVGDRVTITCRASQSVTTYLNWYQQKPGKAPKLLIYSASSLQSGVPSRFSGSGSGTDFTLTISSLQPEDFATYYCQQTYATPWTFGGGTKVEIK
notes: tested as IgG
